# Assay results: the supplement of paper PMC12764529
# ± gives the half width of the 95% confidence interval.
# Tests used:
# [1] = folding stability dG unfold from trypsin proteolysis; higher = more stable
# Method in brief: (§1)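 Bayesian fitting of sequencing counts gave K50 for each design. Unfolding free energy followed by setting this against a sequence-predicted unfolded-state K50 and a shared folded-state K50, either per protease or with trypsin and chymotrypsin combined. The designs, under 80 residues and lacking cysteine, were digested in a PA-tagged cDNA display format at 11 threefold-diluted protease concentrations and without protease, and only those with AlphaFold2 dimer inter-PAE above 15 were kept.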
# [2] = folding stability dG unfold from chymotrypsin proteolysis; higher = more stable
# Method in brief: as §1
# [3] = folding stability dG unfold (combined trypsin and chymotrypsin); higher = more stable
# Method in brief: as §1
Sequence,folding stability dG unfold [1],folding stability dG unfold [2],folding stability dG unfold [3]
SAGGSAGGSAGGSMITLKIPPSKPEEAEKLAKSLGAELKSFDPNTGVVDINSPPGASLESAGGSAGGSAGGS [r4_3_JUSTAS],-1.25 ± 0.58 kcal/mol,-1.35 ± 0.74 kcal/mol,-0.929 ± 0.23 kcal/mol
SAGGSAGGSAGGSMIVITTEGEEVRNSLPSSYNILETKEDPSVPSYTYDIKKPGTGKEESAGGSAGGSAGGS [r4_435_JUSTAS],-1.55 ± 0.38 kcal/mol,-0.979 ± 0.71 kcal/mol,< -1 kcal/mol
SAGGSAGGSAGGSMIVLNVPREVAEKIKEELIKKGIDPEKVKVIYIEVPLPEEPPESILSAGGSAGGSAGGS [r10_602_JUSTAS],0.798 ± 0.067 kcal/mol,0.351 ± 0.099 kcal/mol,0.548 ± 0.16 kcal/mol
SAGGSAGGSAGGSMKTVELSSEEEAKKIVEEAKKKGIPLTLVLTDPKTGNPKTFEFPLASAGGSAGGSAGGS [r4_188_JUSTAS],-0.213 ± 0.22 kcal/mol,-0.248 ± 0.41 kcal/mol,0.0568 ± 0.48 kcal/mol
SAGGSAGGSAGGSMKVEKLPDGKLLVFDVDTKEWKEIDVEDAEVVLDEDNGRAIVRIKPSAGGSAGGSAGGS [r4_127_TrROS_Hall],-0.173 ± 0.16 kcal/mol,1.76 ± 0.076 kcal/mol,0.902 ± 0.28 kcal/mol
SAGGSAGGSAGGSMKVILDKKNNELYILLKDENGKLLLAKITLLPNGEIKIEVYDLKDLSAGGSAGGSAGGS [r4_434_TrROS_Hall],2.27 ± 0.066 kcal/mol,3.98 ± 0.1 kcal/mol,3.56 ± 0.13 kcal/mol
SAGGSAGGSAGGSMLVTEVSISPLPNGTVKVTTKLVLEPPDGVSVLEEESSVVSPEELSSAGGSAGGSAGGS [r4_389_JUSTAS],0.11 ± 0.028 kcal/mol,0.687 ± 0.041 kcal/mol,0.484 ± 0.099 kcal/mol
SAGGSAGGSAGGSMPEGTVLSVDPSTGLKVVYFPGENKLVFEEISPSNELVKRSEFPLSSAGGSAGGSAGGS [r4_192_JUSTAS],-0.116 ± 0.14 kcal/mol,0.436 ± 0.073 kcal/mol,0.15 ± 0.13 kcal/mol
SAGGSAGGSAGGSMPIPYKIDSIEYYPPYPYYTLNVTGPENKPYTIIMSPENLENATIESAGGSAGGSAGGS [r4_51_TrMRF],1.43 ± 0.12 kcal/mol,0.607 ± 0.19 kcal/mol,1.05 ± 0.23 kcal/mol
SAGGSAGGSAGGSMSTINFPSKEEIEAYLKKLGLKNVKLPWYPNNNVMDTSDIEKDILESAGGSAGGSAGGS [r4_101_JUSTAS],0.996 ± 0.022 kcal/mol,1.29 ± 0.03 kcal/mol,1.14 ± 0.058 kcal/mol
SAGGSAGGSAGGSMSVVVTVKDPRTGSTTTVTVSPAEVEEAIEEAKKKGYSVVTVSEGGSAGGSAGGSAGGS [r4_102_JUSTAS],1.84 ± 0.1 kcal/mol,1.43 ± 0.024 kcal/mol,1.68 ± 0.085 kcal/mol
SAGGSAGGSAGGSMTIIVKTEEEAKQLAERLKKELEELGLLENLKIEIKVIPEEDLPPESAGGSAGGSAGGS [r4_472_TrROS_Hall],1.29 ± 0.079 kcal/mol,2.33 ± 0.052 kcal/mol,2.09 ± 0.08 kcal/mol
SAGGSAGGSAGGSMTLVIKNGIGYTVIKIKVEYDEETGEFSFELEIETKPVPPNYPVPASAGGSAGGSAGGS [r4_215_TrMRF],3.02 ± 0.33 kcal/mol,4.39 ± 0.33 kcal/mol,3.99 ± 0.59 kcal/mol
SAGGSAGGSAGGSMTTLNLTNMSPEEIEAALKANPGPVTVTTTLPGGEITTKTYTVPPGSAGGSAGGSAGGS [r10_514_JUSTAS],-0.0189 ± 0.047 kcal/mol,0.644 ± 0.12 kcal/mol,0.423 ± 0.083 kcal/mol
SAGGSAGGSAGGSMVITMTEEEIKALLPPGAKVKVEVVEDEETKEKFVRVEVYPAKEEESAGGSAGGSAGGS [r4_119_TrROS_Hall],0.0616 ± 0.059 kcal/mol,-0.429 ± 0.15 kcal/mol,0.0851 ± 0.21 kcal/mol
SAGGSAGGSAGGSMVKILIEKENELYEIYVPKDEIPLDELVKKAKELFPDIVKIEVFDDSAGGSAGGSAGGS [r4_235_TrMRF],0.802 ± 0.039 kcal/mol,1.1 ± 0.03 kcal/mol,0.966 ± 0.096 kcal/mol
SAGGSAGGSAGGSMVKISKEPDRLTITITPGNTPLVFESTEPISEEEFVEKAKKENPLISAGGSAGGSAGGS [r4_191_JUSTAS],0.215 ± 0.13 kcal/mol,1.03 ± 0.037 kcal/mol,0.657 ± 0.17 kcal/mol
SAGGSAGGSAGGSMVSVEEFEVELPGGSKVKATVLIDPEGPLTVLLGDETFILPKEELGSAGGSAGGSAGGS [r10_649_JUSTAS],-0.22 ± 0.2 kcal/mol,-0.229 ± 0.19 kcal/mol,-0.118 ± 0.13 kcal/mol
SAGGSAGGSAGGSMVVEFSVGDTPIATIPFPGTEEEAKAAVEKLKEEYPSAEVKFTVHDESAGGSAGGSAGG [r7_81_JUSTAS],0.471 ± 0.031 kcal/mol,0.169 ± 0.075 kcal/mol,0.342 ± 0.14 kcal/mol
SAGGSAGGSAGGSMYTAEPSVVLLPDGTLRTVTRYTFPDGSVTSETATSPLSPDDPALLSAGGSAGGSAGGS [r4_144_JUSTAS],-0.0533 ± 0.1 kcal/mol,0.949 ± 0.099 kcal/mol,0.637 ± 0.087 kcal/mol
SAGGSAGGSAGGSNIEIEYNPNMMTIRIEPGDKPIEIQIKSPMTMEEFIKTALDKFPGISAGGSAGGSAGGS [r4_191_TrROS],0.394 ± 0.061 kcal/mol,0.224 ± 0.18 kcal/mol,0.415 ± 0.28 kcal/mol

Sequence,folding stability dG unfold [1],folding stability dG unfold [2],folding stability dG unfold [3]
SAGGSAGGSAGGSNMYIEIDEIERNPDDWYQITVKIYNPDNGEKEKITFYMPPGQEIKISAGGSAGGSAGGS [r4_133_TrROS],0.896 ± 0.076 kcal/mol,1.51 ± 0.12 kcal/mol,1.25 ± 0.2 kcal/mol
SAGGSAGGSAGGSPAVRIPLEVLKELIPPDLVVEVNPVPVPEEGGVLVPVRVVSPEEAASAGGSAGGSAGGS [r4_119_TrMRF],0.0931 ± 0.052 kcal/mol,1.13 ± 0.042 kcal/mol,0.728 ± 0.18 kcal/mol
SAGGSAGGSAGGSPFTIKIKMEQPNGRKRTYTIEGEGDLDQIAKELEKHYPGRIKDIEISAGGSAGGSAGGS [r4_412_TrROS],-0.101 ± 0.31 kcal/mol,0.783 ± 0.23 kcal/mol,0.548 ± 0.27 kcal/mol
SAGGSAGGSAGGSPGVGERVVPVEDGVVRVRVFPDFAVVEYENGGVETMTLDDLVRALSSAGGSAGGSAGGS [r4_242_TrMRF],0.497 ± 0.064 kcal/mol,0.65 ± 0.053 kcal/mol,0.601 ± 0.14 kcal/mol
SAGGSAGGSAGGSPLKIKIVEVKEHKNPDGKPRRRIMMRFPNGRTLHIDMNGNLEIMPASAGGSAGGSAGGS [r4_111_TrROS],0.0795 ± 0.19 kcal/mol,0.176 ± 0.32 kcal/mol,0.188 ± 0.22 kcal/mol
SAGGSAGGSAGGSPNIYYTSGPFALVVTLPNGTKIVIPGSNIENLKNYNLISVEVVSTDSAGGSAGGSAGGS [r4_348_TrMRF],0.528 ± 0.065 kcal/mol,1.81 ± 0.1 kcal/mol,1.4 ± 0.15 kcal/mol
SAGGSAGGSAGGSPPMPMRIDEVEYDPPNGRYEITVEPDNGNPQTITMPPGNIDEAYIVSAGGSAGGSAGGS [r4_51_TrROS],1.47 ± 0.12 kcal/mol,0.978 ± 0.042 kcal/mol,1.15 ± 0.16 kcal/mol
SAGGSAGGSAGGSPSPLGKTRPALPASPVLKVPVTLPDDSLLTVYYDPLTGSLVVESYSSAGGSAGGSAGGS [r4_305_TrMRF],0.326 ± 0.026 kcal/mol,0.414 ± 0.12 kcal/mol,0.467 ± 0.07 kcal/mol
SAGGSAGGSAGGSPVEIKLKELPDGVLVAEATFTLENGETVKIKAVYDKKTKKLHFELVSAGGSAGGSAGGS [r4_13_TrROS_Hall],2.15 ± 0.086 kcal/mol,3.5 ± 0.085 kcal/mol,3.09 ± 0.098 kcal/mol
SAGGSAGGSAGGSPYVQIRFEIPVWKFKPGGWEPVNPMPIPIWVPADDPPAAKDIAEEISAGGSAGGSAGGS [r4_153_TrROS],0.724 ± 0.07 kcal/mol,0.839 ± 0.18 kcal/mol,0.849 ± 0.09 kcal/mol
SAGGSAGGSAGGSRTIYEPVPPDVAGTRLITFTSPDSEPLSTRTVSVTPVPGGRGAVILGSAGGSAGGSAGG [r7_64_JUSTAS],-0.735 ± 0.44 kcal/mol,-0.918 ± 0.73 kcal/mol,-0.599 ± 0.23 kcal/mol
SAGGSAGGSAGGSSAKDILDELKGITFFHPNGRRYRITDVEIEPHGDGWVLSIEMEPYPSAGGSAGGSAGGS [r4_299_TrROS],2.05 ± 0.057 kcal/mol,3.05 ± 0.034 kcal/mol,2.7 ± 0.059 kcal/mol
SAGGSAGGSAGGSSGTSVSTEVSSSPVVTKTEYTKLDDGWSTTTTVVSTLPNALAPELTTSAGGSAGGSAGG [r7_845_JUSTAS],1.06 ± 0.082 kcal/mol,0.255 ± 0.024 kcal/mol,0.727 ± 0.079 kcal/mol
SAGGSAGGSAGGSSIEELRRSPEVEVEVSTEKLPNGKTVTTVTLTPPDGVPTTIVLPEGSAGGSAGGSAGGS [r4_70_JUSTAS],0.266 ± 0.075 kcal/mol,1.17 ± 0.041 kcal/mol,0.978 ± 0.14 kcal/mol
SAGGSAGGSAGGSSITIEEEGGKLRITVTNENGEKSEFEFPPGAKITLPEGVKLELEKESAGGSAGGSAGGS [r4_447_TrROS_Hall],0.549 ± 0.082 kcal/mol,1.13 ± 0.019 kcal/mol,0.84 ± 0.073 kcal/mol
SAGGSAGGSAGGSSLYVPGKGYIVERDEAKGYLVIKPIEPDGIVPDAEVFYKPPSVPLISAGGSAGGSAGGS [r4_409_JUSTAS],-0.879 ± 0.22 kcal/mol,-0.102 ± 0.43 kcal/mol,-0.271 ± 0.19 kcal/mol
SAGGSAGGSAGGSSMTIEEQKEKIKKEVPLGKSVTIEYPDKTVTLTIDPKSGKITVTISSAGGSAGGSAGGS [r4_150_JUSTAS],0.61 ± 0.079 kcal/mol,1.44 ± 0.021 kcal/mol,1.17 ± 0.12 kcal/mol
SAGGSAGGSAGGSSMTLVTEETELPSPLRKVTKYTIDPKNPGKITSETTWYDPEGKPLGSAGGSAGGSAGGS [r4_297_JUSTAS],-0.441 ± 0.33 kcal/mol,0.362 ± 0.17 kcal/mol,0.0774 ± 0.17 kcal/mol
SAGGSAGGSAGGSSMVFELDGVRIVVTEDEVVFYPPETGKPVVLPMSNPEVQELIKELVSAGGSAGGSAGGS [r4_353_TrMRF],1.87 ± 0.054 kcal/mol,1.78 ± 0.039 kcal/mol,1.82 ± 0.083 kcal/mol
SAGGSAGGSAGGSSTILIPSSTSEEYAESLAKELKKKGNVKTSFDPSTGVLVLTLPGGSSSAGGSAGGSAGG [r7_219_JUSTAS],-0.962 ± 0.59 kcal/mol,0.0516 ± 0.2 kcal/mol,-0.17 ± 0.21 kcal/mol
SAGGSAGGSAGGSTGITSTFFDPKTGTVTTTTLVPSTGTTTTTVTPVTIPGPAATTTLTSAGGSAGGSAGGS [r10_331_JUSTAS],1.31 ± 0.067 kcal/mol,0.55 ± 0.052 kcal/mol,0.888 ± 0.045 kcal/mol
